Measured values from patent US6887468B1 (Board of Regents, The University of Texas System, priority 1999, dated 2005).

B1: (Biotinylated 6-His) endostatin: mouse endostatin with N-terminal 6×histidine tag expressed in E. coli, biotinylated (protein, UniProt P39060 1572-1754, looked up)
Endostatin: HSHRDFQPVLHLVALNSPLSGGMRGIRGADFQCFQQARAVGLAGTFRAFLSSRLQDLYSIVRRADRAAVPIVNLKDELLFPSWEALFSGSEGPLKPGARIFSFDGKDVLRHPTWPQKSVWHGSDPNGRRLTESYCETWRTEAPSATGQASSLLGGRLLGQSAASCHHAYIVLCIENSFMTASK
modifications: Endostatin biotin label, His6 tag
B2: 6-His GUS: E. coli β-glucuronidase with N-terminal 6×histidine tag (protein, UniProt P05804 1-603, looked up)
Beta-glucuronidase: MLRPVETPTREIKKLDGLWAFSLDRENCGIDQRWWESALQESRAIAVPGSFNDQFADADIRNYAGNVWYQREVFIPKGWAGQRIVLRFDAVTHYGKVWVNNQEVMEHQGGYTPFEADVTPYVIAGKSVRITVCVNNELNWQTIPPGMVITDENGKKKQSYFHDFFNYAGIHRSVMLYTTPNTWVDDITVVTHVAQDCNHASVDWQVVANGDVSVELRDADQQVVATGQGTSGTLQVVNPHLWQPGEGYLYELCVTAKSQTECDIYPLRVGIRSVAVKGEQFLINHKPFYFTGFGRHEDADLRGKGFDNVLMVHDHALMDWIGANSYRTSHYPYAEEMLDWADEHGIVVIDETAAVGFNLSLGIGFEAGNKPKELYSEEAVNGETQQAHLQAIKELIARDKNHPSVVMWSIANEPDTRPQGAREYFAPLAEATRKLDPTRPITCVNVMFCDAHTDTISDLFDVLCLNRYYGWYVQSGDLETAEKVLEKELLAWQEKLHQPIIITEYGVDTLAGLHSMYTDMWSEEYQCAWLDMYHRVFDRVSAVVGEQVWNFADFATSQGILRVGGNKKGIFTRDRKPKSAAFLLQKRWTGMNFGEKPQQGGKQ
modifications: His6 tag

Tests used:
[1] = test system: Bend3 mouse endothelial cells; ABAE, bovine aortic endothelial cells; HUVEC, human umbilical vein endothelial cells; assay: Direct binding of biotinylated 6-His endostatin to endothelial cells in vitro; assay type: cell-based; conditions: three endothelial cell types
Description: Binding was detected using streptavidin-peroxidase in conjunction with O-phenylenediamine (OPD) and the absorbance read at 490 nm.

[2] = GUS enzymatic activity (cleavage of substrate); assay type: biochemical
Description: The 6-His GUS was pure based upon SDS-PAGE, where it ran as a single band of 75 kDa band. On gel filtration columns, the 6-His GUS runs as a tetramer of about 300 kDa.
The biological activity of each component of the 2C3-GUS conjugate was confirmed.

Molecule | Binding to endothelial cells in vitro [1] | Enzymatic activity of GUS [2]
B1 | bound in a saturable fashion | –
B2 | – | enzymatically active
